Assays:
[1] = target: T1, Recombinant human RO60 (human, UniProt P10155 1-538); assay: BLI; rRO60 1833 nM
[2] = target: T1, Recombinant human RO60; assay: BLI; rRO60 917 nM

T1 sequence (P10155 whole entry): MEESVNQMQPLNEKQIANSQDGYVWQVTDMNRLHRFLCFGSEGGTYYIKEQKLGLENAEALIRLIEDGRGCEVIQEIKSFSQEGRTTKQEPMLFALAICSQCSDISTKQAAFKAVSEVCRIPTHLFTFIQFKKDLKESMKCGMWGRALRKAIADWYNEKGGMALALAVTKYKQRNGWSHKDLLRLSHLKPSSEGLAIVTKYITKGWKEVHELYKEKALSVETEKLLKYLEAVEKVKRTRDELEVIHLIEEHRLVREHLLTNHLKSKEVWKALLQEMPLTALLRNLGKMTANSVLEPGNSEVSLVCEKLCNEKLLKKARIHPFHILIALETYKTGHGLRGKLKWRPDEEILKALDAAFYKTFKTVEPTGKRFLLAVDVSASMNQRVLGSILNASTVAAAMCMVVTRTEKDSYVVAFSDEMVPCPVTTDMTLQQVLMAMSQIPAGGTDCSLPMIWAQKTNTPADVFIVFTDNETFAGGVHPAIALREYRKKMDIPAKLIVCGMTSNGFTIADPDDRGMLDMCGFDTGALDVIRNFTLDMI

B1: Recombinant GST-tagged human DDX6 (natural protein)
chain: MSTARTENPVIMGLSSQNGQLRGPVKPTGGPGGGGTQTQQQMNQLKNTNTINNGTQQQAQSMTTTIKPGDDWKKTLKLPPKDLRIKTSDVTSTKGNEFEDYCLKRELLMGIFEMGWEKPSPIQEESIPIALSGRDILARAKNGTGKSGAYLIPLLERLDLKKDNIQAMVIVPTRELALQVSQICIQVSKHMGGAKVMATTGGTNLRDDIMRLDDTVHVVIATPGRILDLIKKGVAKVDHVQMIVLDEADKLLSQDFVQIMEDIILTLPKNRQILLYSATFPLSVQKFMNSHLQKPYEINLMEELTLKGVTQYYAYVTERQKVHCLNTLFSRLQINQSIIFCNSSQRVELLAKKISQLGYSCFYIHAKMRQEHRNRVFHDFRNGLCRNLVCTDLFTRGIDIQAVNVVINFDFPKLAETYLHRIGRSGRFGHLGLAINLITYDDRFNLKSIEEQLGTEIKPIPSNIDKSLYVAEYHSEPVEDEKP
[1]
  koff: 0.0062 s⁻¹
[2]
  koff: 0.0046 s⁻¹
